Measured values from patent US20240409638A1 (AVACTA LIFE SCIENCES, published 2024).

What was measured:
[1] = target: T1, PD-L1 on cells (NCI-H441 cells; aAPC PD-L1/CHO-K1 cells, Promega) (human, UniProt Q9NZQ7 19-290); test: flow cytometry, % positive cells, NCI-H441 cells (endogenous PD-L1)
T1 construct: whole, on cells; also called human PD-L1-expressing CHO-K1 cells; H441 cells endogenously expressing PD-L1
Method: (§1) Lung cancer cell line (NCI-H441 (ATCC), CHO-K1 recombinant cell line overexpressing PD-L1 aAPC/CHO-K1 (Promega J1252)) and a negative cell line (CHO-K1, ATCC) were used to assess AFFIMER® agent binding capacity to PD-L1 by flow cytometry.
(§2) Briefly, 50 000 cells were added to each well of a 96-well microplate. After this step and each subsequent step, cells were washed twice with PBS+2 mM EDTA using 350g centrifugation for 3 minutes at 4° C. All steps were performed at 4° C. using assay buffer comprising 5% FBS, 2 mM EDTA and 0.05% sodium azide in PBS unless otherwise stated. Independent AFFIMER® agent dilutions were prepared in duplicate and added to the plates. […] Fixation was performed for 10 minutes at 4° C. with Fixation Buffer (Bio-techne FC004). Cells were resuspended in 100 ul assay buffer prior the acquisition of the data. 5000 events were collected by Flow cytometry (Millipore Guava 12HT). The results were gated on live cells and singlets (SSC-H vs SSC-A). The percentage of cells expressing PD-L1 bound by the AFFIMER® agent (positive cells) was determined by using as negative control (background) where the wells were stained with the AF488 conjugated secondary antibody only without AFFIMER® agent. The average of the duplicate wells was used to calculate EC₅₀ using a four-parameter non-linear regression curve fit using Graphpad Prism software. […]

[2] = target: T2, human PD-L1-Fc (R&D Systems) (human, UniProt Q9NZQ7 19-239); test: SPR (Biacore 8K): human PD-L1-Fc amine-coupled on a CM5 chip, AFFIMER as analyte
T2 construct: Bought reagent; also called huPD-L1-Fc; huPD-L1; not shown: Fc part of the bought fusion
T2 sequence (Q9NZQ7 19-239 limits assumed): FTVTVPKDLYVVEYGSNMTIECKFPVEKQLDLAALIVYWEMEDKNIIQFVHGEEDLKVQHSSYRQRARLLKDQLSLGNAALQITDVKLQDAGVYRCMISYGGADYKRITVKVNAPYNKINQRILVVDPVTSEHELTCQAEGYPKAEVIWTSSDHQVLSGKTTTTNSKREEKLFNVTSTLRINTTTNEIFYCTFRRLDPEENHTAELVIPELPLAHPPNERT

[3] = target: T2, human PD-L1-Fc (R&D Systems); test: human PD-L1-Fc binding ELISA: huPD-L1-Fc coated, anti-cystatin A detection, with 10 µM HSA in the assay buffer
Method: Plates were washed and AFFIMER® polypeptides were detected using streptavidin-HRP for 30 min. After the last washing step, the TMB substrate was added for the development of the experiment and plates were read at 450 nm. The EC₅₀ was then calculated using the interpolated non-linear four-parameters standard curve.

[4] = target: T1, PD-L1 on cells (NCI-H441 cells; aAPC …); test: flow cytometry, % positive cells, aAPC PD-L1/CHO-K1 cells (overexpressing PD-L1)
Method: as §1, §2

[5] = target: T2, human PD-L1-Fc (R&D Systems); test: SPR (Biacore) kinetics: human PD-L1-Fc immobilised on a CM5 chip, AFFIMER as analyte
[6] = target: T2, human PD-L1-Fc (R&D Systems); test: SPR (Biacore 8K): human PD-L1-Fc amine-coupled on a CM5 chip, AFFIMER as analyte, 1:1 Langmuir fit

T1 sequence (Q9NZQ7 19-290): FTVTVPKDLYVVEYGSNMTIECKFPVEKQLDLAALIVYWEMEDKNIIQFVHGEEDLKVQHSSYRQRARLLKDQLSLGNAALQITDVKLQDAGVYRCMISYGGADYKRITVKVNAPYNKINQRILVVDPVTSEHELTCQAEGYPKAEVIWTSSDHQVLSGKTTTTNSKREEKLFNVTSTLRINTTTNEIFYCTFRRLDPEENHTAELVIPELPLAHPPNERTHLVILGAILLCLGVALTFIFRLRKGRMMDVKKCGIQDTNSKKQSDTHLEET

EC50 [1]: 0.41 nM
Kd [2]: 0.06 nM
koff [2]: 7.12e-05 s⁻¹
kon [2]: 1.19e+06 M⁻¹ s⁻¹
EC50 [3]: 0.04 nM
EC50 [4]: 0.036 nM
Kd [5]: 0.0796 nM
koff [5]: 0.000123 s⁻¹
kon [5]: 1.55e+06 M⁻¹ s⁻¹
Kd [6]: 0.0391 nM
B1: Clone 80 XT35 (anti-PD-L1 type III AFFIMER® XT in-line fusion dimer XT) (designed binder)
chain: MIPGGLSEAKPATPEIQEIVDKVKPQLEEKTGETYGKLEAVQYKTQVVRRKHFPQWPGTNYYIKVRAGDNKYMHLKVFKSLDLQPREVFQEDLVLTGYQVDKNKDDELTGFAEAAAKEAAAKEAAAKEAAAKEAAAKEAAAKMIPGGLSEAKPATPEIQEIVDKVKPQLEEKTGETYGKLEAVQYKTQVVRRKHFPQWPGTNYYIKVRAGDNKYMHLKVFKSLDLQPREVFQEDLVLTGYQVDKNKDDELTGFAEAAAKEAAAKEAAAKEAAAKEAAAKEAAAKMIPRGLSEAKPATPEIQEIVDKVKPQLEEKTNETYGKLEAVQYKTQVLANFFQRRWPGSTNYYIKVRAGDNKYMHLKVFNGPWKFRNTDRGADRVLTGYQVDKNKDDELTGFHHHHHH
notes: Made in E. coli; Two Clone 80 units are fused to one HSA-41; also called XT35_1; ILF trimer format
